What was measured:
[1] = substrate: O=c1c(O)c(-c2ccc(O)cc2)oc2cc(O)cc(O)c12; assay: UPLC-MS/MS glucosyltransferase kinetics; assay type: biochemical, Aesculus chinensis; conditions: UDP-glucose 2 mM, pH 7.0 Tris-HCl, 10 mM DTT, 37 °C
[2] = substrate: O=c1c(O)c(-c2ccc(O)c(O)c2)oc2cc(O)cc(O)c12; assay: UPLC-MS/MS glucosyltransferase kinetics; assay type: biochemical, Aesculus chinensis; conditions: UDP-glucose 2 mM, pH 7.0 Tris-HCl, 10 mM DTT, 37 °C

Row | Protein | Km [1] [µM] | Km [2] [µM] | kcat [2]
1 | AcUGT1 (Aesculus chinensis) (protein, cloned from mixed leaf, flower and seed cDNA into pMAL-c2x (MBP-fusion vector), expressed in Escherichia coli) MQKAELVFIPLPGVSHLISTVEIAKLLVGRDDRLSITVLIIKFPNFDSNVIAAYTRSLDRIKFIDLPNHFSDSDNSRTLFFSIIESQKPHVKEAVTKLTQSESLPAADSPRLAGFVLDMFCTCMIDVANDFGVPSYIFFTSGAAFLGLMFHAQFLHDELGKSTTDFKDSESDAELVVPSLANPVPARVLPSAMLSKEWSMHLNELSRRFRTTKGIMVNTFAELESYAVNSLSDGSKTQIPPLYPVGPILNLNGDNHVPERKAEIMEWLDDQPPSSVVFLCFGSMGSFDGDQLKEIACALEQSGHRFLWSVRQSPPKDKDKDKIVIPNDCENLTDVLPEGFLDRTVGIGKVIGWAPQVAVLGHPAVGGFVSHCGWNSTLESIWFGVPIATWPIYAEQQLNAFEMVRELGLAVEIKMDYRKDFITESVVELVTAEEIERGIRRLMESDNNDIRKKVKEMSEKSRRALMDGGSSFSSLGRFIGDVIDNIS | 22.62 | 1.02 ± 0.23 | 5.34±0.01(10^-3) S^-1
2 | AcUGT26 (Aesculus chinensis) (protein, cloned from mixed leaf, flower and seed cDNA into pMAL-c2x (MBP-fusion vector), expressed in Escherichia coli) MSSSRSQSHHVILFPFMSKGHTIPLLHLAQLLLRRPRVAVTVFTTPANRPFTSNFLRNTAASIIDLPFPENVPEIAPGIESTDKLPSMSLFVPFARATKLMQPDFERAVEAMPRVSFLVSDGFLWWTLESATKFGFPRFVFYGMNNYSGCVCRAVVENRLLYGRKSDDELVTVTGFPWIKVTRNDFEPTFTDPEPKGPMFDLVIDQVIATSNSYGLIVNSFYELESLFVEHKNREAKPKVWCVGPLCLADPLRVQDQLPPHQKPTWIQWLDQKLEQGRSVLYVAFGTQAEISEEQVKEISSGLEESKVNFLWVIRKKESELGDGFEKRVKERGLIVREWVDQREMLLHQSIHGFLSHCGWNSVMESICAGVPILAWPMMAEQPLNARMVVEEIKVGLRVETCNGSVRGFVKKEGLEKMVKELMEGEKGKEVRKKAKEYAEMARKAMDEDNGSSCRTLDMLMAEISNSKSQDKMEV |  | 2.23 ± 0.06 | 0.65±0.02(10^-3) S^-1

Reference: publication PMC8850972, “Unraveling the Glucosylation of Astringency Compounds of Horse Chestnut via Integrative Sensory Evaluation, Flavonoid Metabolism, Differential Transcriptome, and Phylogenetic Analysis” (Frontiers in Plant Science, 2022)
